Measured values: patent publication US7425447 (Biogen, dated 2008)
Like-named read-outs stand apart in the source and are kept apart here.

T1: B7.1/Ig fusion protein (human, UniProt P33681 35-242, limits assumed)
T1 construct: Secreted from CHO cells; also called B7-Ig; B7Ig; not shown: human immunoglobulin CH2 and CH3
T1 sequence (looked up): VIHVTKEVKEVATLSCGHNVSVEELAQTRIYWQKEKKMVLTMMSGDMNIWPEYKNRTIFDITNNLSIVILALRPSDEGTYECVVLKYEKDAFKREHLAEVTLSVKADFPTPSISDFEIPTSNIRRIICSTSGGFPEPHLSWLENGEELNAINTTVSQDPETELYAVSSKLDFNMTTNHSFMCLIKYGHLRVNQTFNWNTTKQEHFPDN

T2: human B7.1 antigen (CD80), membrane associated (human, UniProt P33681 35-288)
T2 sequence (looked up): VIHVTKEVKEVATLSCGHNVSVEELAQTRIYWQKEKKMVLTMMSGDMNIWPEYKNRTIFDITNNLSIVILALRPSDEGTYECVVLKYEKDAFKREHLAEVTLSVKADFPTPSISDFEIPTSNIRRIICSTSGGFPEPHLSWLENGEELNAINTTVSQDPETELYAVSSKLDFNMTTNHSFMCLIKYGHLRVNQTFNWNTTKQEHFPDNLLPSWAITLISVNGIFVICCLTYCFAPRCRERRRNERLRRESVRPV

T3: B7 antigen (CD80) as used in surface plasmon resonance (UniProt P33681 35-242, limits assumed)
T3 sequence (looked up): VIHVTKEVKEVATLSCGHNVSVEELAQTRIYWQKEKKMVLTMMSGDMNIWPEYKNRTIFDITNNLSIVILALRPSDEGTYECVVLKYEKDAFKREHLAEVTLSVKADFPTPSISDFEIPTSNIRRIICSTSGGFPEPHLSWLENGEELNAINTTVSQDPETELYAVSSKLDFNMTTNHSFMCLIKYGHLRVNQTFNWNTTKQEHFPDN


Columns and labels:
[1] = biological target: human B7.1 antigen (CD80), membrane associated (human) (UniProt P33681); experiment: competition on B7.1 transfected CHO cells; competitor pair BB-1 and L307.4 (FIG. 8)
[2] = biological target: T1, B7.1/Ig fusion protein; experiment: Scatchard analysis, binding to B7-Ig coated plates (apparent Kd)
[3] = biological target: T2, human B7.1 antigen (CD80), membrane …; experiment: cell-based or functional assay
[4] = biological target: T1, B7.1/Ig fusion protein; experiment: Scatchard analysis, binding to B7-Ig coated plates (apparent Kd); remark: listed apart in the source
[5] = biological target: T1, B7.1/Ig fusion protein; experiment: competition of 125I-B7.1Ig binding to CD28 positive peripheral blood T lymphocytes (FIG. 10)
[6] = biological target: T1, B7.1/Ig fusion protein; experiment: cell-based or functional assay
[7] = biological target: T3, B7 antigen (CD80) as used in surface …; experiment: surface plasmon resonance

Row | cross-reactivity (competition) [1] | Kd [2] | inhibition of IL-2 production in mixed lymphocyte reaction [3] | Kd [4] | IC50 [5] | concentration for equivalent blocking of IL-2 production against CTLA-4Ig, anti-CD3/B7 beads (8:1) [6] | Kd [7] | Molecule
1 | 50% |  |  |  |  |  |  | BB-1 murine anti-B7 antibody
2 |  | ~10.7 nM | 5 µg/mL | ~10.7 nM |  |  |  | monkey monoclonal antibody 7B6 (antibody, V domains shown, Cynomolgus monkey antibody from a heterohybridoma; also called hybridoma ATCC HB-12120) VH: EVQLVESGGGLVQPGGSLRVSCAVSGFTFSDHYMYWFRQAPGKGPEWVGFIRNKPNGGTTEYAASVKDRFTISRDDSKSIAYLQMSSLKIEDTAVYYCTTSYISHCRGGVCYGGYFEFWGQGALVTVSS VL: EVVMTQSPLSLPITPGEPASISCRSSQSLKHSNGDTFLSWYQQKPGQPPRLLIYKVSNRDSGVPDRFSGSGAGTDFTLKISAVEAEDVGVYFCGQGTRTPPTFGGGTKVEIK
3 |  | ~6.2 nM | 5 µg/mL | ~6.2 nM |  |  |  | monkey monoclonal antibody 7C10 (antibody, V domains shown, Cynomolgus monkey antibody from a heterohybridoma; The claims (CLM-00020) say that the amino acid entries are the even numbers of each pair; also called 7C10 monkey Ig; hybridoma ATCC HB-12117) VH: QVKLQQWGEGLLQPSETLSRTCVVSGGSISGYYYWTWIRQTPGRGLEWIGHIYGNGATTNYNPSLKSRVTISKDTSKNQFFLNLNSVTDADTAVYYCARGPRPDCTTICYGGWVDVWGPGDLVTVSS VL: AYELTQPPSVSVSPGQTARITCGGDNSRNEYVHWYQQKPARAPILVIYDDSDRPSGIPERFSGSKSGNTATLTINGVEAGDEADYYCQVWDRASDHPVFGGGTRVTVL
4 |  |  |  |  | < 1 µg/mL | ~10 fold | 4 nM | PRIMATIZED 16C10 (antibody, V domains shown, Monkey variable domains with human constant regions, made in CHO cells; Biotinylated in some assays; also called P16C10; copies: 2 + 2) VH: QVQLQESGPGLVKPSETLSLTCAVSGGSISGGYGWGWIRQPPGKGLEWIGSFYSSSGNTYYNPSLKSQVTISTDTSKNQFSLKLNSMTAADTAVYYCVRDRLFSVVGMVYNNWFDVWGPGVLVTVSS VL: ESALTQPPSVSGAPGQKVTISCTGSTSNIGGYDLHWYQQLPGTAPKLLIYDINKRPSGISDRFSGSKSGTAASLAITGLQTEDEADYYCQSYDSSLNAQVFGGGTRLTVLG
5 |  | ~8.1 nM | 0.1 µg/mL | ~8.1 nM |  |  |  | monkey monoclonal antibody 16C10 (antibody, V domains shown, Cynomolgus monkey antibody from a heterohybridoma; also called hybridoma ATCC HB-12119) VH: QVQLQESGPGLVKPSETLSLTCAVSGGSISGGYGWGWIRQPPGKGLEWIGSFYSSSGNTYYNPSLKSQVTISTDTSKNQFSLKLNSMTAADTAVYYCVRDRLFSVVGMVYNNWFDVWGPGVLVTVSS VL: ESALTQPPSVSGAPGQKVTISCTGSTSNIGGYDLHWYQQLPGTAPKLLIYDINKRPSGISDRFSGSKSGTAASLAITGLQTEDEADYYCQSYDSSLNAQVFGGGTRLTVL
